Measurements taken from patent US20170095421A1, “SYNTHETIC PLATELETS” (Maria I. C. Gyongyossy-Issa, priority 2006, published 2017).
Where no end group is shown, it is not given here. [ ]: non-standard residue; d: D form.

Tests used:
[1] = Stability of the covalent linkage of peptide to hydrogel liposomes (Trp fluorescence); type: physicochemical; details: hypothermic liquid storage, 4° C., under nitrogen, in the dark
Experimental: In brief: fluorescence emission at 348 nm (excitation 280 nm) of the single tryptophan of peptide D-Pep3 was used to analyze the stability of the peptide on the liposomes' surface. Fluorescence emission standard curves of trp-associated fluorescence were prepared using a range of concentrations from 1 μM to 20 μM free peptide D-Pep3 in the presence of 1 mM PEG2000 or HL liposomes (FIG. 34).
HL and PEG2000 liposomes were reacted with D-Pep3 peptide (as described according to Scheme 1) then washed and adjusted to a concentration of 1 mM lipid. The fluorescence emission was measured. The samples were stored under nitrogen, in the dark, at 4° C. for one month. The liposomes were again washed, resuspended to the same lipid concentration and the fluorescence emission was measured as before (FIG. 35). The attachment was stable for >1 months in hypothermic liquid storage.

vWf = biological target: T1, vWf (Homo sapiens, UniProt P04275); test: Capture of vWf from plasma cryoglobulin fraction; type: binding; details: human cryoprecipitate 1/100, 1 hour at 37° C., anti-vWf-FITC
T1 construct: mixed with 5 μL human cryoprecipitate diluted 1/100 in Hepes Buffered Saline; from tissue; host or cells: human plasma cryoprecipitate
Experimental: Aliquots of 30 μL of HL or D-Pep3-HL liposomes were mixed with 5 μL human cryoprecipitate diluted 1/100 in Hepes Buffered Saline, (10 mM Hepes, 154 mM NaCl, pH 7.4.) The samples were diluted in buffer to achieve final lipid concentrations of 0.1, 0.25, 0.5, 0.75 and 1 mM, and incubated for 1 hour at 37° C. Anti-vWf-FITC antibodies were added (final dilution 1/128) and incubated for 40 minutes at RT. Samples were diluted with 350 μl of formal-saline and analyzed by flow cytometry.

platelets = test: P-HL interaction with platelets in plasma (flow cytometry, co-aggregates); type: cell-based; details: 0.75 mM lipid, washed platelets, one hour at room temperature
Experimental: Red anti-Cd42-PE antibodies (7 μL) to detect platelets and 5 μL green anti-vWf-FITC antibodies at a 1/160 dilution were added to the tubes and incubated one more time for 30 min. The samples were diluted to 1 mL with formolsaline solution and analysed by flow cytometry. Singlet platelets (platelet gate), singlet liposomes and co-aggregates (P1 gate) were scored.
The post-stained aggregates were positive for CD42 (GPIb) and vWf. All the relevant controls were done, and the critical double stained examples (with anti-CD42-PE and anti-vWf-FITC) were as follows:
FIG. 37A: platelets alone, double stained with anti-CD42-PE and anti-vWF-FITC FIG. 37B: HL (control liposomes), double stained FIG. 37C: P-HL (D3-peptide hydrogel liposomes), double stained FIG. 37D: HL+platelets, (double stained) FIG. 37E: P-HL+platelets, (double stained)

purified vWf = biological target: T2, purified vWf (Homo sapiens, UniProt P04275); test: Random 15-mer D-peptide array probed with purified vWf; type: binding; details: peptide on cellulose membrane, detection with anti-human vWf IgG-HRP
T2 construct: gift of Dr. F. A. Ofosu, McMaster University
Excerpt: Random D-amino acid peptides (15 mer) were synthesized and probed with vWf to detect random sequences capable of binding vWf.
Random peptide arrays of 1120 peptides made of D-amino acids were synthesized on a cellulose membrane using an AutoSpot ASP 222 peptide synthesizer (ABiMED, Langenfeld, Germany). The resulting replicate libraries of 15-mer sequences were probed for vWf binding function by exposing the membranes to purified vWf (a gift of Dr. F. A. Ofosu, McMaster University, Hamilton ON, Canada) and blocking with milk, then identifying positive spots with a polyclonal goat anti-human vWf IgG coupled to horseradish peroxidase (Cedarlane, Canada). Immunochemical detection was done using the chemiluminescent substrates from the Amersham Pharmacia ECL kit; and the resulting spots were recorded on photographic film. Negative controls consisted of probing the membranes with the antibodies only, but without prior exposure of the membrane to purified vWf.
Peptides on random 15-mer peptide arrays that were built of D-amino acids were selected by their binding of vWf. Four sequences were identified: D-pep1-VSRQNGKQYWAIKEG (SEQ ID NO:1); D-pep2-WQNEGTHVLSRCYEC (SEQ ID NO:2); D-pep3-RSARMQVCWNAFKNR (SEQ ID NO:3); and D-pep4-DSCPRDWDNNFLFFE (SEQ ID NO:4). […] The identification of each vWf-peptide binding interface constitutes the results that follow.
Source—a random d-peptide array was probed with vWf and developed with […]. “Forward” D-amino acid peptides were tested, although L-amino acid versions of the peptides as well as the reverse (retro) of both L- and D-sequences will be also encompassed within the scope of these receptor molecules.

purified GPIb = purified GPIb (Homo sapiens, UniProt P07359); test: Overlapping vWf L-peptides on cellulose membrane probed by purified GPIb; type: binding; details: detected by anti-GPIb coupled to HRP
Experimental: The vWf amino acid sequence was used to generate 10-mer L-amino acid overlapping peptides, shifted by two (2), according to the following pattern:
These peptides were synthesized and remained attached on the cellulose membrane. The membranes were probed by purified GPIb which was detected by anti-GPIb coupled to horseradish peroxidase (HRP). A number of positive spots were found whose sequences were derived from their positions on the membrane.
The sequences were analyzed in silico by (a) finding their positions in a 3D model of the parent protein (see FIG. 17) and then (b) relating that position to the potential vWf-GPIb interactive site.

Which “stability of the peptide attachment” value [1] does the source give for “D-Pep3-HL: D-Pep3 peptide covalently attached by Michael addition to hydrogel-liposomes ([dR][dS][dA][dR][dM][dQ][dV][dC][dW][dN][dA][dF][dK][dN][dR]; also: covalently attached to PEG hydrogel-coated liposome by Michael addition (Cys thiol or amines))” here?
The value was > 1 months.

And the “binding (capture) of vWf” value (vWf)?
Its value is “able to bind their specific ligand”.

And the “aggregate formation with platelets” value (platelets)?
The value was “form aggregates”.

For “DSCPRDWDNNFLFFE (not fully specified) [D-pep4]”, which “binding of vWf” value (purified vWf) is on record?
The value was “binding to vWf”.

With EVLKYTLFQI [L-black] as the substance, how does the “binding of GPIb (positive spots)” value (purified GPIb) read?
The value was “+ve”.

With “RSARMQVCWNAFKNR (not fully specified) [D-pep3]” as the substance, how does the “binding of vWf” value (purified vWf) read?
Its value is “binding to vWf”.

Which “binding of GPIb (positive spots)” value (purified GPIb) does the source give for SHAYIGLKDR [L-brown] here?
The value was “+ve”.

For “VSRQNGKQYWAIKEG (not fully specified) [D-pep1]”, which “binding of vWf” value (purified vWf) is on record?
The value was “binding to vWf”.

For “WQNEGTHVLSRCYEC (not fully specified; cysteine pairing not given here) [D-pep2]”, which “binding of vWf” value (purified vWf) is on record?
The value was “binding to vWf”.
